{
  "source": "patent US20160272937A1",
  "about": "“METHODS OF GENERATING INTERMEDIATE MESODERM CELLS FROM HUMAN PLURIPOTENT STEM CELLS” (THE BRIGHAM AND WOMEN'S HOSPITAL, INC., priority 2013, published 2016)",
  "key": {"CHIR-induced hPSCs": {"tested_on": "CHIR-induced hPSCs", "assay": "Growth factor screen for PAX2 induction in CHIR-induced mesendodermal cells (immunostaining)", "format": "cell-based, human", "details": "day 4", "description": "For immunofluorescence studies, cultures are washed once with PBS (Invitrogen) and fixed in 4% paraformaldehyde for 15 min at room temperature (RT). Fixed cells are then washed three times in PBS and incubated in blocking buffer (0.3% Triton X-100 (Fisher Scientific) and 5% normal donkey serum (EMD Millipore) in PBS) for 1 hour at RT.\nThe cells are then incubated with primary antibody overnight at 4° C. or for 2 hours at RT in antibody dilution buffer (0.3% Triton X-100 and 1% BSA (Roche) in PBS). Cells are then washed three times in PBS and incubated with Alexa Fluor 488-, 555-, or 647-conjugated secondary antibodies (1:500) (Molecular Probes) in antibody dilution buffer for 1 hour at RT. For immunostaining with Biotinylated Lotus Tetragonolobus Lectin (LTL, Vector Labs), a Streptavidin/Biotin Blocking Kit (Vector Labs) and Alexa Fluor 488- or 647-conjugated Streptavidin (Molecular Probes) were used according to manufacturer's instructions.\nNuclei can be counterstained with DAPI (Sigma). […] Immunofluorescence is visualized using an inverted fluorescence microscope (Nikon Eclipse Ti, Tokyo, Japan). Quantification is performed by counting a minimum of five random fields at 10× magnification.\nPAX2 is selected since it is an early marker of IM, and, unlike the markers OSR1 or LHX1 which are also expressed in the adjacent lateral plate mesoderm, PAX2 expression is restricted in mesoderm to the IM."}, "[1]": {"tested_on": "human pluripotent stem cells (hPSCs)", "assay": "Mesendoderm induction: BRACHYURY immunofluorescence in hPSCs", "format": "cell-based", "details": "WNT3A alone 500 ng/mL, 24 hours of treatment", "description": "For differentiation experiments, hESCs or hiPSCs can be grown on Geltrex, washed once with PBS and dissociated into single cells with Accutase ([…] Technologies). Cells are plated at a density of 4×10^4 cells/cm^2 onto Geltrex-coated plates in mTeSR1 medium supplemented with the ROCK inhibitor Y27632 10 μM (Stemgent). Cells are fed daily with mTeSR1 without Y27632 for 2-3 days until they reached 50% confluency. Mesendoderm differentiation-the media is changed to Advanced RPMI (A-RPMI, Invitrogen) supplemented with 1×L-glutamax and 1× penicillin/streptomycin and either CHIR99021 (CHIR, Stemgent), human Wnt3a (R&D systems), and/or human activin A (R&D systems) at the doses described. Definitive endoderm differentiation-cells are treated with […] for 24 hours, then […]+100 ng/mL of activin A for 2-3 days. Hepatic differentiation-cells at the definitive endoderm stage are treated with […]27 supplement (Invitrogen)+20 ng/mL BMP-4 (R&D systems)+10 ng/mL FGF2 (Invitrogen) for 5 days, then […]27+10 ng/mL HGF for 5 days, then HCM Hepatocyte Culture Medium (Lonza) supplemented with 20 ng/mL Oncostatin M and 10 ng/mL HGF (Peprotech) for 5 days. Pancreatic differentiation-cells at the definitive endoderm stage are treated with DMEM/F12+2% FBS (Hyclone)+50 ng/mL FGF7 (R&D systems) for 2 days, then high-glucose DMEM (Mediatech)+1% B27+2 μM retinoic acid (Sigma)+0.25 μM KAAD cyclopamine (EMD Millipore)+100 ng/mL recombinant human Noggin (R&D systems) for 4 days, then high-glucose DMEM+1% B27+100 ng/mL Noggin+300 nM indolactam V (Stemgent)+1 μM ALK5 inhibitor II (Axxora) for 4 days. Anterior foregut endoderm differentiation-cells at the definitive endoderm stage are treated with DMEM/F12+1×L-glu+1×B27+200 ng/mL Noggin+10 μM SB431542 (Stemgent) for 3 days. […] Immunofluorescence is visualized using an inverted fluorescence microscope (Nikon Eclipse Ti, Tokyo, Japan). Quantification is performed by counting a minimum of five random fields at 10× magnification. […]"}, "[2]": {"tested_on": "hPSCs (hESC and hiPSC lines)", "assay": "Intermediate mesoderm differentiation: PAX2/LHX1 immunostaining", "format": "cell-based, human", "details": "BMP-7 added to FGF2 and RA after CHIR 36 hours, day 3", "description": "Mesendoderm differentiation—the media is changed to Advanced RPMI (A-RPMI, Invitrogen) supplemented with 1×L-glutamax and 1× penicillin/streptomycin and either CHIR99021 (CHIR, Stemgent), human Wnt3a (R&D systems), and/or human activin A (R&D systems) at the doses described. Definitive endoderm differentiation—cells are treated with A-RPMI+1×L-glu+1×P/S+5 μM CHIR for 24 hours, then A-RPMI+1×Lglu+1×P/S+100 ng/mL of activin A for 2-3 days. Hepatic differentiation—cells at the definitive endoderm stage are treated with A-RPMI+1×L-glu+1×P/S+1×B27 supplement (Invitrogen)+20 ng/mL BMP-4 (R&D systems)+10 ng/mL FGF2 (Invitrogen) for 5 days, then A-RPMI+1×L-glu+1×P/S+1×B27+10 ng/mL HGF for 5 days, then HCM Hepatocyte Culture Medium (Lonza) supplemented with 20 ng/mL Oncostatin M and 10 ng/mL HGF (Peprotech) for 5 days. Pancreatic differentiation—cells at the definitive endoderm stage are treated with DMEM/F12+2% FBS (Hyclone)+50 ng/mL FGF7 (R&D systems) for 2 days, then high-glucose DMEM (Mediatech)+1% B27+2 μM retinoic acid (Sigma)+0.25 μM KAAD cyclopamine (EMD Millipore)+100 ng/mL recombinant human Noggin (R&D systems) for 4 days, then high-glucose DMEM+1% B27+100 ng/mL Noggin+300 nM indolactam V (Stemgent)+1 μM ALK5 inhibitor II (Axxora) for 4 days. Anterior foregut endoderm differentiation—cells at the definitive endoderm stage are treated with DMEM/F12+1×L-glu+1×B27+200 ng/mL Noggin+10 μM SB431542 (Stemgent) for 3 days. For hindgut endoderm differentiation, cells at the definitive endoderm stage were treated with A-RPMI+1×L-glu+1×P/S+2% FBS+500 ng/mL FGF4 (R&D systems)+5 μM CHIR for 4 days. […]\nNuclei can be counterstained with DAPI (Sigma). […] Immunofluorescence is visualized using an inverted fluorescence microscope (Nikon Eclipse Ti, Tokyo, Japan). Quantification is performed by counting a minimum of five random fields at 10× magnification. […]"}},
  "data": [
    {"molecule": "FGF2: fibroblast growth factor-2", "values": [
      {"measurement": "cells positive for PAX2 by immunostaining", "setting": "CHIR-induced hPSCs; CHIR 24 hours then FGF2 100 ng/mL", "value": "50-60%"},
      {"measurement": "PAX2 expression", "setting": "CHIR-induced hPSCs; FGF2 added to hPSCs not initially induced with CHIR", "value": "absence of PAX2 expression"}
    ]},
    {"molecule": "BMP-4: candidate growth factor screened for PAX2 induction (protein, UniProt P12644 293-408, looked up) Bone morphogenetic protein 4: SPKHHSQRARKKNKNCRRHSLYVDFSDVGWNDWIVAPPGYQAFYCHGDCPFPLADHLNSTNHAIVQTLVNSVNSSIPKACCVPTELSAISMLYLDEYDKVVLKNYQEMVVEGCGCR", "values": [
      {"measurement": "PAX2 expression", "setting": "CHIR-induced hPSCs; CHIR 24 hours then increasing doses of factor", "value": "no PAX2 expression"}
    ]},
    {"molecule": "WNT3A: wingless-type MMTV integration site family, member 3A; human Wnt3a (R&D systems) (protein, UniProt P56704 19-352, looked up) Protein Wnt-3a: SYPIWWSLAVGPQYSSLGSQPILCASIPGLVPKQLRFCRNYVEIMPSVAEGIKIGIQECQHQFRGRRWNCTTVHDSLAIFGPVLDKATRESAFVHAIASAGVAFAVTRSCAEGTAAICGCSSRHQGSPGKGWKWGGCSEDIEFGGMVSREFADARENRPDARSAMNRHNNEAGRQAIASHMHLKCKCHGLSGSCEVKTCWWSQPDFRAIGDFLKDKYDSASEMVVEKHRESRGWVETLRPRYTYFKVPTERDLVYYEASPNFCEPNPETGSFGTRDRTCNVSSHGIDGCDLLCCGRGHNARAERRREKCRCVFHWCCYVSCQECTRVYDVHTCK", "values": [
      {"measurement": "cells expressing BRACHY", "setting": "[1]", "value": "26.7±1.9", "unit": "%"}
    ]},
    {"molecule": "BMP-7: candidate growth factor screened for PAX2 induction (protein, UniProt P18075 293-431, looked up) Bone morphogenetic protein 7: STGSKQRSQNRSKTPKNQEALRMANVAENSSSDQRQACKKHELYVSFRDLGWQDWIIAPEGYAAYYCEGECAFPLNSYMNATNHAIVQTLVHFINPETVPKPCCAPTQLNAISVLYFDDSSNVILKKYRNMVVRACGCH", "values": [
      {"measurement": "PAX2 expression compared to vehicle control", "setting": "CHIR-induced hPSCs; CHIR 24 hours then low doses of factor", "value": "modest increases"},
      {"measurement": "expression of LHX1", "setting": "[2]", "value": "minimal effect"},
      {"measurement": "percentage of cells expressing PAX2", "setting": "[2]", "value": "significantly decreased"}
    ]}
  ]
}
